Data taken from patent publication US20100184663A1.

Key:
[1] = molecular target: HIV-1 gp41 (HXB2 strain) (HIV-1 HXB2) (UniProt P04578); assay: cell-based or functional assay
[2] = molecular target: HIV-1 gp41 (JRFL strain) (HIV-1 JRFL); assay: cell-based or functional assay

## Fuzeon (from UniProt P04578 638-673) (peptide)
[1]
  IC50 (HXB2), pseudovirion entry: 3.7 nM
  IC50 (HXB2), single-cycle viral infectivity assay: 3.7 nM
[2]
  IC50 (JRFL), pseudovirion entry: 5 nM
